Key:
[1] = target: VZV glycoprotein C gC_(S147-V531) (varicella zoster virus, Dumas strain)
[2] = target: VZV glycoprotein C construct gC Y419-S523 (varicella zoster virus (Dumas strain)); assay: SPR
[3] = target: VZV glycoprotein C gC_(S147-V531) (varicella zoster virus, Dumas strain); assay: SPR + other: grating-coupled interferometry (GCI)
[4] = target: VZV glycoprotein C gC_(Y322-S523) (varicella zoster virus, Dumas strain); assay: SPR + other: grating-coupled interferometry (GCI)
[5] = target: VZV glycoprotein C gC_(Y419-S523) (varicella zoster virus, Dumas strain); assay: SPR + other: grating-coupled interferometry (GCI)
Sequence of VZV glycoprotein C gC_(Y419-S523) (varicella zoster virus, Dumas strain) (P09256 450-554 limits assumed): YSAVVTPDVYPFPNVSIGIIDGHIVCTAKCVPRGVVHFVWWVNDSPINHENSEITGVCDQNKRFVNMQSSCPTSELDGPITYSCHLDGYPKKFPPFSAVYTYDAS

Sequence of VZV glycoprotein C construct gC Y419-S523 (varicella zoster virus (Dumas strain)) (P09256 450-554 limits assumed): as above
Sequence of VZV glycoprotein C gC_(S147-V531) (varicella zoster virus, Dumas strain) (P09256 178-562 limits assumed): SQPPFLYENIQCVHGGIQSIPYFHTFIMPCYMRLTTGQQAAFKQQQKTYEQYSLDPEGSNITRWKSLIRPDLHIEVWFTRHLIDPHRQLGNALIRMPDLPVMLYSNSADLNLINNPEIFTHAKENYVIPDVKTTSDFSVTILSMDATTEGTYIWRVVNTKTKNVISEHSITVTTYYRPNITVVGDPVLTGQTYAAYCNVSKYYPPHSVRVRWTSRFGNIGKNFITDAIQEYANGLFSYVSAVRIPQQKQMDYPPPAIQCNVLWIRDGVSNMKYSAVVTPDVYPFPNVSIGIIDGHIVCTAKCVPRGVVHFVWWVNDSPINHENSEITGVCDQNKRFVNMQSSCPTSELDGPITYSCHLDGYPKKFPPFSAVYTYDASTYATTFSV
Sequence of VZV glycoprotein C gC_(Y322-S523) (varicella zoster virus, Dumas strain) (P09256 353-554 limits assumed): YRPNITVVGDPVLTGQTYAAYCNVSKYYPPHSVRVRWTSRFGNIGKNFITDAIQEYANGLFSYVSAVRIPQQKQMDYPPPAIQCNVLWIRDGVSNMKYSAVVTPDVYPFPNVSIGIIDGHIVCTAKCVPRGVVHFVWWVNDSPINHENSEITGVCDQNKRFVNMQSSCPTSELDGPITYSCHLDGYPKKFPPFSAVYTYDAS

Q: “interferon-gamma (IFN-γ) (from UniProt P01579 24-161) (ligand)” was tested. Which adhesion of Jurkat cells to HaCaT cells stimulated with 5 ng/mL IFN-γ and 300 nM gC construct, fold against IFN-γ alone [1] did it give?
A: 2.7 fold

Q: And the Kd [2]?
A: 18 nM

Q: What about the koff [2] of the same substance?
A: 0.0244 s⁻¹

Q: What about the kon [2] of the same substance?
A: 1.35e+06 M⁻¹ s⁻¹

Q: What about the off-rate of the transient interaction (Kd1), heterogenous ligand fit [3] of the same substance?
A: 0.04 s⁻¹

Q: And the off-rate of the transient interaction (Kd1), heterogenous ligand fit [4]?
A: 0.04 s⁻¹

Q: What about the koff [5] of the same substance?
A: 0.02 s⁻¹

From article PMC11193720
